Drawing on US20220380463A1 (Adimab, published 2022), this text covers koff for 17 molecules.

As a reminder, the koff is the first-order rate constant of dissociation. Higher therefore signals a short-lived complex.

Where a chain is given by its changes, count along the chain named.

In this experiment the target is T1, Cynomolgus CD3εδ Fc heterodimer (Cy CD3ε Fc / CD3δ Fc-HIS) (cynomolgus, UniProt Q95LI8 22-100).
T1 chain 1: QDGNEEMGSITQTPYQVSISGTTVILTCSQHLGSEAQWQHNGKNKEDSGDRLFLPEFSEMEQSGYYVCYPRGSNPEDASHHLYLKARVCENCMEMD
T1 chain 2: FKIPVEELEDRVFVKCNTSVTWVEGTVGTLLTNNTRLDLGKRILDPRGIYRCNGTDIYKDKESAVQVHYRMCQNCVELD
Briefly: BLI (Octet), IgG on AHC sensor, pH 6.0. A general note: In BLI a coated tip is dipped into the sample, and binding shifts an interference pattern.

B1: SAD10320_P02_A06 (ADI-57367) (antibody, V domains shown)
VH: QVQLVQSGAEVKKPGASVKVSCKASGFNIKDYYMHWVRQAPGQRLPWMGWIDLENANTIYDAKFQGRVTITRDTSASTAYMELSSLRSEDTAVYYCARDAHERYFYDVWGQGTLVTVSS
VL: DIVMTQSPDSLAVSLGERATINCKSSQSLLNARTGKNYLAWYQQKPGQPPKLLIYWASTRESGVPDRFSGSGSGTDFTLTISSLQAEDVAVYYCKQSHLRRTFGGGTKVEIK
notes: IgG; also called Ab82
As for B1, the off-rate (koff) came to 0.00264 s⁻¹.

B2: SAD10320_P03_D08 (ADI-57377) (antibody, V domains shown)
VH: B1 VH with P46E, H101Y, E102G, R103H, Y104Q
VL: B1 VL with H98Y, L99H, R100T
notes: IgG; also called Ab95
For the molecule B2, the dissociation rate constant (koff) came to 0.00194 s⁻¹.

B3: SAD10320_P04_C10 (ADI-57383) (antibody, V domains shown)
VH: B1 VH with P46E, H101Y, E102G, R103H, Y104A
VL: B1 VL with H98Y, L99H, R100Q
notes: IgG; also called Ab104
In turn, B3 gave a koff of 0.0187 s⁻¹.

B4: SAD10320_P02_H06 (ADI-57372) (antibody, V domains shown)
VH: B1 VH with P46E, H101Y, E102G, Y104N, F105H
VL: B1 VL with N37S, H98Y, L99V, R100H
notes: IgG; also called Ab89
For B4, the koff amounted to 0.00281 s⁻¹.

B5: SAD10320_P03_C09 (ADI-57381) (antibody, V domains shown)
VH: B1 VH with K23E, P46E, H101Y, E102G, R103H, Y104V
VL: B1 VL with H98Y, R100H
notes: IgG; also called Ab99
Regarding B5, the koff was determined as 0.0051 s⁻¹.

B6: SAD10320_P03_F09 (ADI-48656) (antibody, V domains shown)
VH: B1 VH with P46E, H101Y, E102G, R103H, Y104D
VL: B1 VL with H98Y, L99H
notes: IgG; also called Ab101
The molecule B6 had a dissociation rate constant (koff) of 0.00719 s⁻¹. The koff values of the last two molecules are within 1.5-fold of each other.

B7: SAD10320_P02_D06 (ADI-57368) (antibody, V domains shown)
VH: B1 VH with L45P, P46A, H101Y, E102G, R103H, Y104G
VL: B1 VL with H98Y, L99G, R100H
notes: IgG; also called Ab85
For B7, the off-rate (koff) came to 0.00621 s⁻¹.

B8: SAD10320_P03_C08 (ADI-57376) (antibody, V domains shown)
VH: B1 VH with K23E, R44T, P46A, H101Y, E102G, R103H, Y104V
VL: B1 VL with H98Y, R100H
notes: IgG; also called Ab94
As for B8, the koff is 0.0152 s⁻¹.

B9: SAD10320_P04_D10 (ADI-57384) (antibody, V domains shown)
VH: B1 VH with K23E, L45P, P46E, H101Y, E102G, R103H, Y104V
VL: B1 VL with H98Y, R100H
notes: IgG; also called Ab105
For the molecule B9, the off-rate constant (koff) is 0.0171 s⁻¹.

B10: SAD10320_P04_A10 (ADI-57382) (antibody, V domains shown)
VH: B1 VH with P46D, H101Y, E102G, R103H, Y104D
VL: B1 VL with H98Y, L99S
notes: IgG; also called Ab103
Molecule B10 gave an off-rate constant (koff) of 0.0144 s⁻¹.

B11: SAD10320_P03_H08 (ADI-57379) (antibody, V domains shown)
VH: B1 VH with P46E, H101Y, E102G, R103H, Y104V
VL: B1 VL with R33S, G35A, H98Y, L99R, R100H
notes: IgG; also called Ab97
Molecule B11 returned a koff of 0.015 s⁻¹.

B12: SAD10320_P03_F08 (ADI-57378) (antibody, V domains shown)
VH: B1 VH with P46E, H101Y, E102G, R103H, Y104D
VL: B1 VL with T34P, H98Y, L99S
notes: IgG; also called Ab96
B12 yielded a koff of 0.00268 s⁻¹. Against the preceding molecule, the koff is about 5.6-fold lower.

B13: SAD10320_P03_A09 (ADI-57380) (antibody, V domains shown)
VH: B1 VH with P46E, H101Y, E102G, R103H, Y104V
VL: B1 VL with H98S, L99H
notes: IgG; also called Ab98
The molecule B13 showed a koff of 0.0029 s⁻¹.

B14: SAD10320_P03_B07 (ADI-57373) (antibody, V domains shown)
VH: B1 VH with P46A, H101Y, E102G, R103H, Y104D
VL: B1 VL with H98Y, L99S
notes: IgG; also called Ab90
In turn, B14 displayed a koff of 0.00224 s⁻¹. The koff values of the last two molecules are within 1.5-fold of each other.

B15: SAD10320_P03_E07 (ADI-57374) (antibody, V domains shown)
VH: B1 VH with P46E, H101V, E102H
VL: B1 VL with H98Y, L99H, R100P
notes: IgG; also called Ab92
In the case of B15, the koff worked out at 0.00699 s⁻¹. Against the preceding molecule, the koff is about 3.1-fold higher.

B16: SAD10320_P02_E06 (ADI-57369) (antibody, V domains shown)
VH: B1 VH with G8E, P46Q, H101Y, E102G, R103H, Y104G
VL: B1 VL with T34P, H98Y, L99S
notes: IgG; also called Ab86
B16 returned an off-rate (koff) of 0.0303 s⁻¹.

B17: SAD10320_P04_E10 (ADI-48657) (antibody, V domains shown)
VH: B1 VH with L45P, P46E, H101Y, E102G, R103H, Y104D
VL: B1 VL with H98Y, L99S
notes: IgG; also called Ab106
B17 registered a dissociation rate constant (koff) of 0.00258 s⁻¹. Compared with the last molecule, the koff is about 12-fold lower.
